Measurements taken from the domain aggregation screens of Martell et al. (2025).

Experiment: soluble fraction after stress (log2 fold change); higher = more stays soluble; pooled small domains, quantitative proteomics
Settings: stress: 75 degC
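Further: 20 min heating vs room temperature control held 20 min.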

Row | Sequence | soluble fraction (log2)
1 | HMQTGYHVRITASTLNVRRDHSASSAVATQVRRGEVYTIVDEYNNGGTLWGKLKSGAGWIALKYTQS | -3.39
2 | HMQTTITITNTVTGQKAQFPPPFNPMSLSKIGVDETFEKEVFVDGVDTFGYGLDGYLTFYELKDFLRSYQ | -2.61
3 | HMQVEYTRGELLQDLKEENVLYATITPSRETPTGEVDFVFKDKSIKTLYVTDVSEIEGLLMDYGIDPEVKK | -0.454
4 | HMQVITEPFQEKYREFINMSTVTQRLEERETLSFTAQTVEGRWLTIIIVPQGYDKTGKLSTVLVANR | 0.274
5 | HMQVSDEGAIQLLVQKAIEENPQAIEAFRGGKTSALGPVVGWVMKQSKGAANPTMVKTLLEKAI | 0.154
6 | HMQVVVEKSKEKVIISGNQYYIHIVKKGETAFSIAKAYGITVDELVKNNPSAATVLKEGQALRIPVVE | 0.0365
7 | HMQYDESSQLGERFLNQALNALKADPDKVGDAQWEKLLKENSAKSRQEVLADIGLGKQLAIVIARELLS | -0.148
8 | HMQYPSSLDSRAKQSLYDNLERNEILALALDNVIQSNKLDGWRDGGIKERKLRLAINNLLKNDEHTDNIME | -0.0341
9 | HMQYQIITENGKQYYLYTVQKSEGFYSIGKRFEITNDEIIKANPEAALGLKLGQVLKIPVYK | -2.4
10 | HMRAAKSEDTRTRLIEGGMALFGQKGYNATGIKDITDAAGVPKGSFYNYFASKEDFGAEIIHSY | 0.14
11 | HMRAEELEQFVERLKNEVMNNFPLKELSDNELREKIENLVEIRLANVYVSIEQRVAIAEQIYSSIR | -1.1
12 | HMRAERVQITDPYIELHTGPGRGFPIFFVAPREQWISIELRHTDWFKVRAVGGQVGWVQRKQLEST | -1.56
13 | HMRAGHDFEALKHIESSLDKHLTDEGIKIKSEKRGAIVARWYQSHVEGREVTDDDVHTWIELFF | -2.82
14 | HMRAPIGFRISNRRKSLKISQVALARLVGISPSYLNLIENNKRDVGGALLQRVALHLNIDIDDL | -3.13
15 | HMRARTLSTTGGESLLTLAESLYPDDDRARARFIEATAAANPKLFADIAALTRVLPAGTTLRMPDLRA | -0.0128
16 | HMRARTQYWPFVEEKAAELKLPLHLVNVEPLFGEQKVVVHYTANGRIDFRELVHLLARRFHARIEMR | 0.0673
17 | HMRATLTDETARVVQEPTSESISLTSLRKGEEFEIGKVIRKKKEVWVTVTTSSGVKGYISGDTHIF | 0.00739
18 | HMRAVFEQLRIGQTLAGVVKAQEKGFSLVEIDGQTVAMRLPHPAAVGDTLRLRFAGHMPQAVFLLES | -1.99
19 | HMRAVPSIAFVTQKLIEQGVTMEQLVRSLLLDHEEYENDDSLERTADELFGKARMIISNYTPE | -1.08
20 | HMRDADRYAFMQENVEDFAKDMRRKHMTYDVLYEEYIRRTDNPYGYTQFKAIVQEYEKNHDYK | -0.367

Row | Sequence | soluble fraction (log2)
21 | HMRDGYEKPTEVGEGGRNPAMLSYIGHLRAKGHLSEEDIRSMAHGFNATTFDPPLDRDEVDGLVSRY | 0.106
22 | HMRDITAQSNASELYFEERDLEAFIEKLERLYPEIRYVNRLMIHSWGQQVVRFFDPDGNLIEVGTP | -0.146
23 | HMRDKTMLGNVIRTRRKKMNLTLEELSKQVGITSGGLSQIERGLVDPSLSVLRRISRALNLPMNVMFSE | -1.32
24 | HMRDLAEAETILDALPTRLRKIVRWRHLEGLSQTEIAARLEISQMHVSRLYRRAISMIHASLADD | -0.289
25 | HMREEQELFRKLLEVNGIGPKVAAGMLAGGRPEDVVSAIRREDVAWLTKLPGIGRKTAQRIVLDLKDKLD | -0.331
26 | HMREPQMVTVNGDKVTHGHAYRSNVNPEDWYFTARINGQQLKPQKMEPADVAAYDKKEIGVPELMQR | -0.275
27 | HMRESPYRRVAKFLLLIGTAEAAKIVSRLDQDQVEKVMLELSGIRSVPRDEATVILAEFESLLQQAR | -2.03
28 | HMRESRLFQILYQLLTKKKVTAANLAKQFEVSVRTIYRDIDALSSSGIPIYASQGKNGGIQLDEDF | -0.992
29 | HMRETELPVTIISAGRILAENLHLAGRDGGWLEAELKRRSLTAEQVLLLTVDAAGTVYLVRKEDL | -2.1
30 | HMREWPLWEIFIRGQHGLNHRHVGSLHAPDAAMAIGNARDVYTRRNEGVSIWAVRSADVVASVPSE | -2.08
31 | HMRGADNAASILKEVGPHPEDGKPITVRSGRYGPYVKHGTTNATLPKDIKPEEITLDEAIALINERVAKG | 0.018
32 | HMRGGKGTVPDVTGMDAAAAVRILEKAGMNVAYIRGAGFVAEQTPAAGTKLKKGDKAYITLSWK | -0.622
33 | HMRGGWESLTDREREIAVLAAEGHSNRTIASTLFISDRTVQSHVSRALRALGVDSRTGIPSLVTTATR | 0.09
34 | HMRGWGTVKRRTPKSGRYRASYIGPDGKRYAADHTYAAKVDADAWLSSERALITAGVWTPPTDRVT | -0.688
35 | HMRHLSVPSQDTQQVLQRLKVELALPEGARVRSDPSDPGRRLIPFTESVPQEMIDQYPVVSINI | -0.147
36 | HMRIAGIDIPDNKRGEVALTYIFGIGRSSSKKILKSAGIDSDKQIGKWTDDESNLVRKLIRDEYTIEGDL | -0.312
37 | HMRIASANAIYDELLNKRDDAKLAELKQEDINLYALYILQNGSADERAALENTQGIDVVLKEIINLQNG | -0.305
38 | HMRIGINDRIHEIVDVLRLKKSTPFEDLFSGLVTRFDLVITFLALLEMGKLRLLRLYQTDPLAPLHVEYTG | -0.0164
39 | HMRILDFPALKTEFDQLTKDLMAKYPEDGADRVRAIIETVLGPGKKVGALQPHQAELLAEVNTSLKANL | -0.0738
